Assay results published in patent publication US7091311 (GlaxoSmithKline, dated 2006).
Read-outs that look alike come from different tables or passages of the source. *1 amine or outer side, *2 acyl side, *3 side chain or, on linkers, in order; H or OH if unused. Bridges are numbered along the chain shown (N, C = ends). Where no end group is shown, it is not given here. [ ]: non-standard residue; d: D form. Phe(4-NO2) = N[C@@H](Cc1ccc([N+](=O)[O-])cc1)C(=O)O; Phe(3,4-Cl2) = N[C@@H](Cc1ccc(Cl)c(Cl)c1)C(=O)O; DiPhAla = diphenylalanine (source's own name); Ser(Bzl) = O=C([C@H](COCc1ccccc1)N[*:1])[*:2]; Phe(4-Cl) = N[C@@H](Cc1ccc(Cl)cc1)C(=O)O; 1Nal = N[C@@H](Cc1cccc2ccccc12)C(=O)O; 2Nal = N[C@@H](Cc1ccc2ccccc2c1)C(=O)O; NMeF = CN[C@@H](Cc1ccccc1)C(=O)O; hPhe = N[C@@H](CCc1ccccc1)C(=O)O; 2Thi = N[C@@H](Cc1cccs1)C(=O)O; Cha = N[C@@H](CC1CCCCC1)C(=O)O; NMeL = CN[C@@H](CC(C)C)C(=O)O; Phg = N[C@H](C(=O)O)c1ccccc1; Tle = CC(C)(C)[C@H](N)C(=O)O; NMeV = CN[C@H](C(=O)O)C(C)C; NMeA = CN[C@@H](C)C(=O)O; Nle = CCCC[C@H](N)C(=O)O; Nva = CCC[C@H](N)C(=O)O; Abu = CC[C@H](N)C(=O)O; Aib = CC(C)(N)C(=O)O; Sar = CNCC(=O)O

Tests used:
full length human TPO-R [1] = biological target: T1, full length human TPO-R (human, UniProt P40238 26-635); assay: cell-based or functional assay
T1 sequence (looked up): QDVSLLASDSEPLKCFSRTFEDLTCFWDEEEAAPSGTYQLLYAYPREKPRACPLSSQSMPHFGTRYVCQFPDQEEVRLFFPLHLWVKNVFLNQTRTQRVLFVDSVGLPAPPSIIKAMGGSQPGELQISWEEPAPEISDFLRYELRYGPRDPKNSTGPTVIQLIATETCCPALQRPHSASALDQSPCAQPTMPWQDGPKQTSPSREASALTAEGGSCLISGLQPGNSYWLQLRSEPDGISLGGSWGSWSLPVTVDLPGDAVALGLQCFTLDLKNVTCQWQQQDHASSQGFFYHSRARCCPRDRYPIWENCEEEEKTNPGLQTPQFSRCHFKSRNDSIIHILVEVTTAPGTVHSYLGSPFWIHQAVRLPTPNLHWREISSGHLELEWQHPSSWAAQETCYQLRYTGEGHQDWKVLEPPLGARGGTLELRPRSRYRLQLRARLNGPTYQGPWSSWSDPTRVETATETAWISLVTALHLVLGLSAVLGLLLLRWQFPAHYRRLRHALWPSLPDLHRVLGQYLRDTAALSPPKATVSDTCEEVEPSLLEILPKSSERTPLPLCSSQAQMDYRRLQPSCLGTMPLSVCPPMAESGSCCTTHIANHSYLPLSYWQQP

full length human TPO-R [2] = biological target: T1, full length human TPO-R; assay: cell-based or functional assay; remark: listed apart in the source

Binder | EC50 cell proliferation (full length human TPO-R [1]) | EC50 microphysiometer (full length human TPO-R [1]) | EC50 cell proliferation (full length human TPO-R [2]) | EC50 microphysiometer (full length human TPO-R [2])
CADGPTLREWIS[Phg]C (disulfide 1-14 (inferred); not fully specified) [SEQ ID NO:12 cyclized, F - (Phenylgly)] | ≤ 500 nM | ≤ 500 nM |  | 
CADGPTLREWIS[NMeA]C (disulfide 1-14 (inferred); not fully specified) [SEQ ID NO:12 cyclized, F - (N-Me-Ala)] | ~200000 nM |  |  | 
CADGPTLREWIS[NMeF]C (disulfide 1-14 (inferred); not fully specified) [SEQ ID NO:12 cyclized, F - (N-Me-Phe)] | ≤ 500 nM |  |  | 
CADGPTLREWIS[1Nal]C (disulfide 1-14 (inferred); not fully specified) [SEQ ID NO:12 cyclized, F - (1-Nal)] | ≤ 500 nM |  |  | 
CADGPTLREWIS[2Nal]C (disulfide 1-14 (inferred); not fully specified) [SEQ ID NO:12 cyclized, F - (2-Nal)] | ≤ 500 nM | ≤ 500 nM |  | 
GPTLREWISFC (not fully specified; also: further groups not given here) [[drawing CHEM-US-00039] (SEQ ID NO:190)(SEQ ID NO:190)] |  |  | ≤ 500 nM | ≤ 500 nM
CADGPTLREWI[Abu]FC (disulfide 1-14 (inferred); not fully specified) [SEQ ID NO:12 cyclized, S - Abu] | ≤ 500 nM |  |  | 
CADGPTLREWI[Tle]FC (disulfide 1-14 (inferred); not fully specified) [SEQ ID NO:12 cyclized, S - (t-Bu-Gly)] | ~200000 nM |  |  | 
CADGPTLREWI[NMeL]FC (disulfide 1-14 (inferred); not fully specified) [SEQ ID NO:12 cyclized, S - (N-Me-Leu)] | ≤ 200000 nM |  |  | 
PTLREWISFC (not fully specified; also: further groups not given here) [[drawing CHEM-US-00041] (SEQ ID NO:191)(SEQ ID NO:191)] |  |  | ≤ 500 nM | ≤ 500 nM
CADGPTLREWI[Nva]FC (disulfide 1-14 (inferred); not fully specified) [SEQ ID NO:12 cyclized, S - Nva] | ≤ 500 nM | ≤ 500 nM |  | 
CADGPTLREWI[Nle]FC (disulfide 1-14 (inferred); not fully specified) [SEQ ID NO:12 cyclized, S - (Nor-Leu)] | ≤ 500 nM |  |  | 
ADGPTLREWISFC (also: further groups not given here) [[drawing CHEM-US-00036] (SEQ ID NO:173)(SEQ ID NO:173)] |  |  | ≤ 500 nM | ≤ 500 nM
CADGPTLREWI[NMeA]FC (disulfide 1-14 (inferred); not fully specified) [SEQ ID NO:12 cyclized, S - (N-Me-Ala)] | ~200000 nM |  |  | 
PTLREWISFC (not fully specified; also: further groups not given here) [[drawing CHEM-US-00040] (SEQ ID NO:191)(SEQ ID NO:191)] |  |  | ≤ 500 nM | 
TLREWISFC (also: further groups not given here) [[drawing CHEM-US-00043] (SEQ ID NO:192)(SEQ ID NO:192)] |  |  | ~200000 nM | ≤ 500 nM

Binder | EC50 cell proliferation (full length human TPO-R [1]) | EC50 microphysiometer (full length human TPO-R [1]) | EC50 cell proliferation (full length human TPO-R [2]) | EC50 microphysiometer (full length human TPO-R [2])
CADGPTLREWIS[Phe(4-Cl)]C (disulfide 1-14 (inferred); not fully specified) [SEQ ID NO:12 cyclized, F - (p-Cl-Phe)] | ≤ 500 nM |  |  | 
CADGPTLREWI[Sar]FC (disulfide 1-14 (inferred); not fully specified) [SEQ ID NO:12 cyclized, S - Sar] | ~200000 nM |  |  | 
ADGPTLREWISFC (also: further groups not given here) [[drawing CHEM-US-00035] (SEQ ID NO:173)(SEQ ID NO:173)] |  |  | ≤ 500 nM | 
CADGPTLREWIS[Cha]C (disulfide 1-14 (inferred); not fully specified) [SEQ ID NO:12 cyclized, F - CHA] | ≤ 500 nM | ≤ 500 nM |  | 
GPTLREWISFC (not fully specified; also: further groups not given here) [[drawing CHEM-US-00038] (SEQ ID NO:190)(SEQ ID NO:190)] |  |  | ≤ 500 nM | 
CADGPTLREWIS[DiPhAla]C (disulfide 1-14 (inferred); not fully specified) [SEQ ID NO:12 cyclized, F - (DiPh - Ala)] | ≤ 500 nM |  |  | 
CADGPTLREWIS[Phe(4-NO2)]C (disulfide 1-14 (inferred); not fully specified) [SEQ ID NO:12 cyclized, F - (p-Nitrophe)] | ≤ 500 nM | ≤ 500 nM |  | 
CADGPTLREWIS[hPhe]C (disulfide 1-14 (inferred); not fully specified) [SEQ ID NO:12 cyclized, F - Homo-Phe] | ≤ 500 nM | ≤ 500 nM |  | 
CADGPTLREWIS[Pyridylala]C (not fully specified (bridges); also: cyclized, type not given here) [SEQ ID NO:12 cyclized, F - (Pyridylala)] | ≤ 500 nM |  |  | 
CADGPTLREWIS[Phe(3,4-Cl2)]C (disulfide 1-14 (inferred); not fully specified) [SEQ ID NO:12 cyclized, F - (3,4-di-Cl-Phe)] | ≤ 500 nM | ≤ 200000 nM |  | 
CADGPTLREWI[NMeV]FC (disulfide 1-14 (inferred); not fully specified) [SEQ ID NO:12 cyclized, S - (N-Me-Val)] | ≤ 200000 nM |  |  | 
CADGPTLREWIS[2Thi]C (disulfide 1-14 (inferred); not fully specified) [SEQ ID NO:12 cyclized, F - Thi] | ≤ 500 nM |  |  | 
TLREWISFC (also: further groups not given here) [[drawing CHEM-US-00042] (SEQ ID NO:192)(SEQ ID NO:192)] |  |  | ~200000 nM | ~200000 nM
ADGPTLREWISFC (also: further groups not given here) [[drawing CHEM-US-00027] / [drawing CHEM-US-00028] (SEQ ID NO:173)] |  |  | ≤ 500 nM | ≤ 500 nM
CADGPTLREWI[Aib]FC (disulfide 1-14 (inferred); not fully specified) [SEQ ID NO:12 cyclized, S - Aib] | ≤ 500 nM | ≤ 200000 nM |  | 
CADGPTLREWIS[Ser(Bzl)]C (disulfide 1-14 (inferred); not fully specified) [SEQ ID NO:12 cyclized, F - (Ser(Bzl))] | ≤ 500 nM |  |  | 
